Source: the supplement of paper PMC9112550, “Optimization of the antimicrobial peptide Bac7 by deep mutational scanning” (BMC Biology, 2022)

These sequences were tested on Escherichia coli TOP10 (assay: shrunken log2 fold change of peptide-encoding DNA abundance (4.5 h post-induction vs induction); higher = less antimicrobial activity (less host growth inhibition)). Conditions: time post-induction: 4.5 h; library: site-saturation at positions 5, 18, 19, 20.
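Also: peptides expressed intracellularly from a pBAD plasmid library in pooled LB shake-flask culture, induced with 0.3% L-arabinose, DNA abundance read by NGS, three biological replicates, DESeq2 with apeglm shrinkage.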

Row | Sequence | shrunken log2 fold change
1 | RRIRERPPRLPRPRPRPNLPPRP | -0.0648
2 | RRIRNRPPRLPRPRPRPIMRPRP | 0.00621
3 | RRIRVRPPRLPRPRPRPHQEPRP | 0.113
4 | RRIRVRPPRLPRPRPRPYFDPRP | -0.609
5 | RRIRPRPPRLPRPRPRPMCVPRP | 0.076
6 | RRIRNRPPRLPRPRPRPYAKPRP | -0.257
7 | RRIRNRPPRLPRPRPRPVFDPRP | -0.152
8 | RRIRARPPRLPRPRPRPAWEPRP | 0.925
9 | RRIRWRPPRLPRPRPRPIFMPRP | -0.0259
10 | RRIRCRPPRLPRPRPRPAKKPRP | 0.00097
11 | RRIRSRPPRLPRPRPRPKEFPRP | -0.216
12 | RRIRRRPPRLPRPRPRPKHNPRP | 0.396
13 | RRIRTRPPRLPRPRPRPILKPRP | -0.348
14 | RRIRFRPPRLPRPRPRPNYRPRP | 0.055
15 | RRIRGRPPRLPRPRPRPTSLPRP | 0.542
16 | RRIRVRPPRLPRPRPRPKYPPRP | -0.188
17 | RRIRNRPPRLPRPRPRPPDDPRP | 0.123
18 | RRIRIRPPRLPRPRPRPNFQPRP | -0.417
19 | RRIRMRPPRLPRPRPRPGSNPRP | 0.211
20 | RRIRTRPPRLPRPRPRPYEDPRP | -0.0155
21 | RRIRFRPPRLPRPRPRPANEPRP | 0.0451
22 | RRIRLRPPRLPRPRPRPDLTPRP | 0.169
23 | RRIRVRPPRLPRPRPRPAGHPRP | -0.1
24 | RRIRLRPPRLPRPRPRPHLCPRP | -0.355
25 | RRIRCRPPRLPRPRPRPFEGPRP | 0.0192

Row | Sequence | shrunken log2 fold change
26 | RRIRMRPPRLPRPRPRPLGVPRP | 0.8
27 | RRIRRRPPRLPRPRPRPPVMPRP | 0.403
28 | RRIRLRPPRLPRPRPRPGQYPRP | -0.0693
29 | RRIRIRPPRLPRPRPRPLYQPRP | -0.904
30 | RRIRRRPPRLPRPRPRPAHLPRP | 0.178
31 | RRIRRRPPRLPRPRPRPSTRPRP | 0.194
32 | RRIRCRPPRLPRPRPRPIAAPRP | 0.549
33 | RRIRDRPPRLPRPRPRPLGKPRP | 0.188
34 | RRIRPRPPRLPRPRPRPPKLPRP | 0.172
35 | RRIRVRPPRLPRPRPRPKTCPRP | 0.021
36 | RRIRWRPPRLPRPRPRPHHCPRP | -0.239
37 | RRIRARPPRLPRPRPRPALYPRP | 0.332
38 | RRIRYRPPRLPRPRPRPHDWPRP | -0.0744
39 | RRIRLRPPRLPRPRPRPCFSPRP | -0.112
40 | RRIRLRPPRLPRPRPRPYLMPRP | -0.69
41 | RRIRSRPPRLPRPRPRPHNMPRP | -0.798
42 | RRIRPRPPRLPRPRPRPLFTPRP | -0.385
43 | RRIRARPPRLPRPRPRPISFPRP | 0.323
44 | RRIRKRPPRLPRPRPRPPNKPRP | 0.289
45 | RRIRQRPPRLPRPRPRPWHKPRP | -0.334
46 | RRIRFRPPRLPRPRPRPVFWPRP | 0.423
47 | RRIRMRPPRLPRPRPRPQQDPRP | 0.741
48 | RRIRHRPPRLPRPRPRPDKQPRP | 0.0409
49 | RRIRIRPPRLPRPRPRPMGAPRP | -0.341
50 | RRIRKRPPRLPRPRPRPLCCPRP | 0.104

Row | Sequence | shrunken log2 fold change
51 | RRIRSRPPRLPRPRPRPIMSPRP | -0.173
52 | RRIRKRPPRLPRPRPRPWPMPRP | 0.915
53 | RRIRGRPPRLPRPRPRPPKWPRP | 0.469
54 | RRIRERPPRLPRPRPRPDMIPRP | 0.0157
55 | RRIRPRPPRLPRPRPRPMNHPRP | -0.11
56 | RRIRNRPPRLPRPRPRPWQFPRP | -0.0175
57 | RRIRCRPPRLPRPRPRPYAQPRP | -0.227
58 | RRIRQRPPRLPRPRPRPPWIPRP | -0.145
59 | RRIRCRPPRLPRPRPRPARGPRP | 0.297
60 | RRIRDRPPRLPRPRPRPPIDPRP | 0.0165
61 | RRIRERPPRLPRPRPRPLPGPRP | -0.165
62 | RRIRLRPPRLPRPRPRPCGDPRP | -0.00813
63 | RRIRNRPPRLPRPRPRPEWYPRP | -0.451
64 | RRIRTRPPRLPRPRPRPETGPRP | -0.00371
65 | RRIRQRPPRLPRPRPRPFDEPRP | -0.153
66 | RRIRARPPRLPRPRPRPCTEPRP | -0.0123
67 | RRIRRRPPRLPRPRPRPREFPRP | 0.419
68 | RRIRVRPPRLPRPRPRPQMHPRP | -0.175
69 | RRIRDRPPRLPRPRPRPQHCPRP | 0.0461
70 | RRIRQRPPRLPRPRPRPRLHPRP | 0.0368
71 | RRIRCRPPRLPRPRPRPPGGPRP | 0.539
72 | RRIRTRPPRLPRPRPRPWRPPRP | 0.00182
73 | RRIRQRPPRLPRPRPRPKPFPRP | -0.101
74 | RRIRMRPPRLPRPRPRPTRDPRP | 0.314
75 | RRIRGRPPRLPRPRPRPPFAPRP | 1.91

Row | Sequence | shrunken log2 fold change
76 | RRIRVRPPRLPRPRPRPILPPRP | -0.331
77 | RRIRCRPPRLPRPRPRPFVQPRP | -0.86
78 | RRIRERPPRLPRPRPRPKFAPRP | -0.139
79 | RRIRWRPPRLPRPRPRPKFPPRP | 0.944
80 | RRIRIRPPRLPRPRPRPEWNPRP | -0.332
81 | RRIRIRPPRLPRPRPRPYTDPRP | -0.0335
82 | RRIRMRPPRLPRPRPRPWTHPRP | -0.136
83 | RRIRYRPPRLPRPRPRPIHIPRP | -0.0433
84 | RRIRTRPPRLPRPRPRPAFLPRP | 0.228
85 | RRIRDRPPRLPRPRPRPKQIPRP | -0.0135
86 | RRIRLRPPRLPRPRPRPRHHPRP | -0.0411
87 | RRIRFRPPRLPRPRPRPDFDPRP | -0.15
88 | RRIRVRPPRLPRPRPRPSDYPRP | -0.673
89 | RRIRWRPPRLPRPRPRPYILPRP | -0.849
90 | RRIRFRPPRLPRPRPRPQGFPRP | -0.313
91 | RRIRTRPPRLPRPRPRPHPTPRP | 0.106
92 | RRIRERPPRLPRPRPRPVRLPRP | 0.0832
93 | RRIRYRPPRLPRPRPRPHDDPRP | 0.0514
94 | RRIRCRPPRLPRPRPRPIWKPRP | 0.0906
95 | RRIRRRPPRLPRPRPRPLFHPRP | 0.0745
96 | RRIRHRPPRLPRPRPRPNYLPRP | -0.114
97 | RRIRMRPPRLPRPRPRPMSYPRP | -0.175
98 | RRIRQRPPRLPRPRPRPRPRPRP | 0.414
99 | RRIRWRPPRLPRPRPRPRMMPRP | 0.0684
100 | RRIRYRPPRLPRPRPRPRLGPRP | 0.0954

Row | Sequence | shrunken log2 fold change
101 | RRIRNRPPRLPRPRPRPWVRPRP | -0.0742
102 | RRIRERPPRLPRPRPRPTRDPRP | 0.245
103 | RRIRPRPPRLPRPRPRPNICPRP | -0.799
104 | RRIRVRPPRLPRPRPRPTEGPRP | 0.0116
105 | RRIRNRPPRLPRPRPRPDCSPRP | -0.224
106 | RRIRQRPPRLPRPRPRPMQIPRP | 0.0201
107 | RRIRVRPPRLPRPRPRPKLEPRP | 0.09
108 | RRIRFRPPRLPRPRPRPCWQPRP | 3.76
109 | RRIRLRPPRLPRPRPRPSVDPRP | -0.462
110 | RRIRTRPPRLPRPRPRPGHCPRP | -0.0671
111 | RRIRTRPPRLPRPRPRPYHWPRP | -0.675
112 | RRIRDRPPRLPRPRPRPSKPPRP | -0.0858
113 | RRIRQRPPRLPRPRPRPAAPPRP | 0.243
114 | RRIRVRPPRLPRPRPRPRSGPRP | 0.322
115 | RRIRHRPPRLPRPRPRPTLCPRP | -0.134
116 | RRIRARPPRLPRPRPRPLMCPRP | 0.0392
117 | RRIRQRPPRLPRPRPRPIIVPRP | -0.0856
118 | RRIRIRPPRLPRPRPRPTCKPRP | -0.466
119 | RRIRSRPPRLPRPRPRPILCPRP | -0.35
120 | RRIRSRPPRLPRPRPRPCSMPRP | -0.441
121 | RRIRVRPPRLPRPRPRPWMRPRP | 0.731
122 | RRIRHRPPRLPRPRPRPEMEPRP | -0.108
123 | RRIRYRPPRLPRPRPRPTDSPRP | -0.678
124 | RRIRWRPPRLPRPRPRPLRAPRP | 1.19
125 | RRIRVRPPRLPRPRPRPRTHPRP | 0.199
